The source of these data is the supplement of paper PMC10567573.

A short description of this series: protein stability index of a GFP-peptide fusion (GPS, HEK-293T) (PSI 1-6); higher = more stable.
Where [1] appears, read: treatment: DMSO, c terminus: a fixed tail appended.
Setting [2] is: treatment: MLN4924 1 uM, 8 h, c terminus: a fixed tail appended.

± gives the standard deviation.
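Also: 24-mer peptide tiles fused after GFP, lentivirally expressed, FACS-sorted into six equal bins by GFP/DsRed ratio, decoded by Illumina sequencing, PSI is the read-weighted mean bin number.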

Take SLMYRSPPGAEEPQAPPASRDEAA [RETREG3]: the protein stability index was determined as 5.44 ± 0.22 under setting [1] and 5.38 ± 0.26 under setting [2]. As to NVCDDYDVTCNEFFFDRNPGAFGT [KCNG1], the protein stability index by setting is: under setting [1], 3.44 ± 0.25; under setting [2], 3.65 ± 0.12. For GCGYGCQLHHVVYCFMIAYGTQRT [FUT8], the protein stability index is, setting by setting: under setting [1], 3.19 ± 0.45; under setting [2], 3.06 ± 0.57. Regarding ELQLEQSRAANQEQRANDLEQIME [CEP70], the protein stability index under setting [1] came to 5.1 ± 0.15 and the protein stability index under setting [2] was 5.16 ± 0.092. The sequence ALVGCVISDNPERYSTNLSNHVDD [EDNRA] returned a protein stability index under setting [1] of 3.94 ± 0.44 and a protein stability index under setting [2] of 4.16 ± 0.16. Regarding LAPEVIQSKGHGRAVDWWALGILI [PRKX], the protein stability index was 2.61 ± 0.86 under setting [1] and 2.3 ± 0.62 under setting [2]. Turning to VLETKWELLQQLDLNNCKNNLEPI [KRT71], the protein stability index is, setting by setting: under setting [1], 3.2 ± 0.17; under setting [2], 3.17 ± 0.29. RYESLTDPSKLDSGKELKIDIIPN [HSP90AB1]: the protein stability index by setting is: under setting [1], 4.33 ± 0.2; under setting [2], 4.31 ± 0.24.

Turning to MLKFLAKGEVPKGSCEDEPMDSTM [ATE1], the protein stability index under setting [1] stood at 4.22 ± 0.3 and the protein stability index under setting [2] amounted to 4.36 ± 0.092. For GDFWRMIWEQRSATVVMMTKLEER [PTPRD], the protein stability index runs as follows: under setting [1], 2.77 ± 0.38; under setting [2], 2.36 ± 0.18. For the sequence YRCIREARYTMPSSLLAPAKHLIA [PLK2], the protein stability index is, setting by setting: under setting [1], 2.56 ± 0.54; under setting [2], 2.48 ± 0.18. Consider GLKKLNLHEEEHVLLMAICIVSPD [VDR], for which the protein stability index is, setting by setting: under setting [1], 3.13 ± 0.57; under setting [2], 2.83 ± 0.54. Regarding SARYLSQCQEAEQARAELTAQHQR [FBF1], the protein stability index stood at 4.76 ± 0.28 under setting [1] and 4.57 ± 0.15 under setting [2].

Consider CNLWDSHHPEVPQRILRIMCRLEE [HDAC6], for which the protein stability index runs as follows: under setting [1], 2.55 ± 0.16; under setting [2], 2.35 ± 0.28.

Consider LVDVACKHLTDTSHGVRNKCLQLL [INTS4], for which the protein stability index by setting is: under setting [1], 2.18 ± 0.49; under setting [2], 2.46 ± 0.17. As for EPERQVQHEESTEGEADHSGYAGE [UFD1], the protein stability index is 5.61 ± 0.28 under setting [1] and 5.7 ± 0.24 under setting [2]. For AAGMRFPLPEAIDPDVGVNSLQSY [PCDHGA10], the protein stability index is, setting by setting: under setting [1], 3.9 ± 0.2; under setting [2], 4.12 ± 0.31. In turn, LYKEELEQTYHAKLENARLSSEMN [LMNB1] came in with a protein stability index under setting [1] of 3.21 ± 0.64 and a protein stability index under setting [2] of 3.62 ± 0.25. As to PDGLRSGDGVPPRSLQDGTREGFG [LCOR], the protein stability index is, setting by setting: under setting [1], 4.95 ± 0.11; under setting [2], 5.15 ± 0.16. As for STSLLTSAGNRTHKARTRPKARKQ [ADAMTSL2], the protein stability index came out at 4.89 ± 0.35 under setting [1] and 4.92 ± 0.25 under setting [2]. Turning to LCDKLPPATALGTASYPSDGCGAD [NOL4L], the protein stability index reads like this: under setting [1], 4.98 ± 0.19; under setting [2], 4.92 ± 0.23. On the same counts, the results for VQEMRNKIREQNLQDIKTAGPQSQ [ADD1] are 4.98 ± 0.34 and 5.1 ± 0.1.

Turning to GLRRVLDELTLARTDLEMQIEGLN [KRT15], the protein stability index turned out to be 2.71 ± 0.3 under setting [1] and 2.66 ± 0.19 under setting [2]. On to HWTSAPLTEASAHSHPPEIKDQGG [MAP2], for which the protein stability index reads like this: under setting [1], 5.14 ± 0.14; under setting [2], 5.18 ± 0.18.

On to NTSIRVADFGSATFDHEHHTTIVA [CLK3], for which the protein stability index turned out to be 3.52 ± 0.45 under setting [1] and 3.27 ± 0.28 under setting [2]. For MEKGPVRAPAEKPRGARCSNGFPE [GCH1], in that order: 4.46 ± 0.29 and 4.58 ± 0.25. In the case of KQGELPREVRRAQARLLNPSATRA [NOP53], the protein stability index reads like this: under setting [1], 4.42 ± 0.46; under setting [2], 4.47 ± 0.19.

Turning to IINTKKLSARDHQKLEREARICRL [CAMK2A], the protein stability index turned out to be 3.19 ± 0.23 under setting [1] and 3.27 ± 0.25 under setting [2]. On the same counts, the results for TGIEYIVAQGPTNQGLNVMVWNQN [ADAMTSL2] are 2.175 ± 0.019 and 2.1 ± 0.24.

As to KVIDDTNITRLQLETEIEALKEEL [KRT18], the protein stability index came out at 4.2 ± 0.18 under setting [1] and 4.36 ± 0.23 under setting [2].

Under setting [1], FIFTFVKKKKIGFYFEVCGMMVES [PCDHGA10] came in with a protein stability index of 3.34 ± 0.57. As for NTELQDVQRIMVANIEEVLQRGEA [SEC22B], the protein stability index amounted to 4.7 ± 0.36 under setting [1] and 4.71 ± 0.25 under setting [2]. For the sequence MCEQCDVFYCDPCRLRCHPPRGPL [TRIM9], the protein stability index reads like this: under setting [1], 2.8 ± 0.32; under setting [2], 2.72 ± 0.35. TQEFLSACKSLQTRQNGIQTNKPA [STX5]: the protein stability index worked out at 4.18 ± 0.21 under setting [1] and 4.14 ± 0.23 under setting [2].

As for NGAKELWFFLQSELKKLKNLEGNE [FUT8], the protein stability index runs as follows: under setting [1], 2.45 ± 0.47; under setting [2], 2.48 ± 0.33. On the same counts, the results for ASKTVFFFFSSPGNNNGTSIEDGQ [BTBD1] are 2.55 ± 1.3 and 2.29 ± 0.74. Regarding VDFTFVENVVHGHILAAEQLSRDS [NSDHL], the protein stability index is 2.37 ± 0.36 under setting [1] and 2.26 ± 0.4 under setting [2]. For ILFYCHFPDLLLTKRDSFLKRLYR [ALG2], the protein stability index under setting [1] was determined as 2.81 ± 0.6 and the protein stability index under setting [2] came to 2.18 ± 0.51. For the sequence RYEQGRFWPHLKASNWSTTGFGQG [HDAC6], the protein stability index reads like this: under setting [1], 2.54 ± 0.28; under setting [2], 2.6 ± 0.12. On the same counts, the results for RMTSAAHYYPKLMSIMGNVLRFLP [GFOD1] are 2.32 ± 0.39 and 2.15 ± 0.36. For the sequence HNDLWESWFVPDPAGIFKLNHHS [GLT8D2], the protein stability index reads like this: (treatment: DMSO, c terminus: native) 2.87 ± 0.15; (treatment: MLN4924 1 uM, 8 h, c terminus: native) 2.9 ± 0.41.

FELEDSNEIFTQLYRTLFSVINNG [PDS5B] had a protein stability index under setting [1] of 2.15 ± 0.47 and a protein stability index under setting [2] of 2.41 ± 0.23. KRPYAKELETVDFKDKLEETKGQI [SERPINB5] returned a protein stability index under setting [1] of 5.12 ± 0.21 and a protein stability index under setting [2] of 5.23 ± 0.14.

In the case of APAKYTVFDAEGYVKPQSCIDIVI [MOSPD3], the protein stability index is, setting by setting: under setting [1], 2.83 ± 0.84; under setting [2], 2.5 ± 1.3. On to VSGLDSSYLREQMLNEPLVREIVK [GAN], for which the protein stability index reads like this: under setting [1], 3.14 ± 0.26; under setting [2], 2.96 ± 0.25. Take TPLPETGYWRVRLWNGDKYAATTT [TRIM39]: the protein stability index turned out to be 2.47 ± 0.34 under setting [1] and 2.37 ± 0.2 under setting [2]. For the sequence NYPYDKSFEHRVRGVRRTASTPTP [CPN1], the protein stability index under setting [1] stood at 4.05 ± 0.4 and the protein stability index under setting [2] came out at 4.14 ± 0.23. Consider TTENENTKFEVRLLRDPADASEAH [CHGB], for which the protein stability index by setting is: under setting [1], 5.18 ± 0.21; under setting [2], 5.24 ± 0.14. For NRNQRIVQLIQDTRIHILPSMNPD [CPN1], in that order: 2.95 ± 0.12 and 3 ± 0.25. DFHKPFLGGFRHKVTGVEYHNAGT [IQUB] displayed a protein stability index under setting [1] of 2.88 ± 0.32 and a protein stability index under setting [2] of 2.88 ± 0.16. In the case of KPIHTTILNPHVHVIGEDAACIAY [CAMK2B], the protein stability index worked out at 2.77 ± 0.26 under setting [1] and 2.98 ± 0.18 under setting [2]. Regarding DRLWRPSKVLSLQDLCCRAVVSCT [RAB40B], the protein stability index runs as follows: under setting [1], 3.01 ± 0.17; under setting [2], 2.8 ± 0.21.

Turning to TIAQSLEHSWIKAIRRRNVRGEDS [DAPK3], the protein stability index reads like this: under setting [1], 3.64 ± 0.41; under setting [2], 3.4 ± 0.15.
